Experimental data published in US20210079083A1 (INSTITUTE FOR BASIC SCIENCE, published 2021).
Substitutions are numbered along the chain they refer to.

T1: mouse Ang2 (mAng2) (mouse, UniProt O35608 19-496, limits assumed)
T1 construct: Coated on the ELISA plate; also called recombinant mAng2
T1 sequence (looked up): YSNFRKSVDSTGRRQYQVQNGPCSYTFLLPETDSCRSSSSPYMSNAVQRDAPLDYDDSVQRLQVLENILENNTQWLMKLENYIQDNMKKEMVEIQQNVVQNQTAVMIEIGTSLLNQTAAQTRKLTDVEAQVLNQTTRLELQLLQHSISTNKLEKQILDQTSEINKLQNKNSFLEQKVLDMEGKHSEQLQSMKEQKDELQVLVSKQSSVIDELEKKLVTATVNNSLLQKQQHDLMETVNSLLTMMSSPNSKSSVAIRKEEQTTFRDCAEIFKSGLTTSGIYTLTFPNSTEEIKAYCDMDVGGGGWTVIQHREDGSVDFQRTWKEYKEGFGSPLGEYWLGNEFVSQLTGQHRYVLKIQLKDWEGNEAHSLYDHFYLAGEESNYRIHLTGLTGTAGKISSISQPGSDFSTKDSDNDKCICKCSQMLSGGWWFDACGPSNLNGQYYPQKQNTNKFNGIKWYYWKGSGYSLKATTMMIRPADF

T2: Human Angiopoietin-2 full-length (hAng2) (human, UniProt O15123 19-496)
T2 construct: The cell assays used full-length hAng2 from R&D Systems; also called human Ang2; A2
T2 sequence: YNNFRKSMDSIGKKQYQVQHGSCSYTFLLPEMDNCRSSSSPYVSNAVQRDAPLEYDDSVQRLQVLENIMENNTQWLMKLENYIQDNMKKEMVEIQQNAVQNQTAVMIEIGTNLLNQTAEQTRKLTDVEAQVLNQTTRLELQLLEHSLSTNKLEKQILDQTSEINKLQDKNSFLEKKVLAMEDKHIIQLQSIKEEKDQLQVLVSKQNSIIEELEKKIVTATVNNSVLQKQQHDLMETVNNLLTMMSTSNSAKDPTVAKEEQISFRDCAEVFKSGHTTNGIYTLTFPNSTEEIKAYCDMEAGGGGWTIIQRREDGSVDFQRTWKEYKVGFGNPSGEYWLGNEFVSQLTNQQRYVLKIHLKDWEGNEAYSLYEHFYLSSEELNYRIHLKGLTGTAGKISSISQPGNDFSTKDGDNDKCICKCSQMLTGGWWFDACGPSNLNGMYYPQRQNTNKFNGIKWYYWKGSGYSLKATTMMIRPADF

B1: humanized anti-Ang2 antibody 2C8H11 (antibody, V domains shown)
VH: QVQLVQSGAEVKKPGASVKVSCKASGYTFTSYWMHWVRQAPGQGLEWMGMIDPSDSETRLNQKFKDRVTMTRDTSTSTVYMELSSLRSEDTAVYYCARRFYYGSDWYFDVWGQGTLVTVSS
VL: DIQLTQSPSFLSASVGDRVTITCKASQDVGTAVAWYQQKPGKAPKLLIYWASTRHTGVPSRFSGSGSGTEFTLTISSLQPEDFATYYCQQYSSYPLTFGQGTKVEIK
notes: Full-length human IgG1
B2: humanized anti-Ang2 antibody 4B9H11 (antibody, V domains shown)
VH: QVQLVESGGGLVKPGGSLRLSCAASGFTFSDYYMYWIRQAPGKGLEWVSTISVGGSFTYYPDSVKGRFTISRDNAKNSLYLQMNSLRAEDTAVYYCARDWGLRPWFVYWGQGTLVTVSS
VL: B1 VL with L4M, F10S, G30S, E70D, Y91H, S92Y, Y94T, L96P
notes: Full-length human IgG1

Legend:
[1] = target: T1, mouse Ang2 (mAng2); experiment: ELISA, mAng2 coated at 20 ng per well, detection with anti-human IgG (Fab)-HRP
Method: FIG. 8. EC₅₀ values of anti-Ang2 antibodies against mouse Ang2 by ELISA. The binding affinities of humanized anti-Ang2 antibodies for mouse Ang2 (mAng2) were measured by analyzing EC₅₀ with ELISA. The recombinant mAng2 was coated and incubated with serially diluted anti-Ang2 antibodies, 4B9H11 and 2C8H11. Next, the plate was reacted with anti-human IgG (Fab)-HRP secondary antibody. The plate was treated with TMB solution and absorbance was measured at 450 nm. EC₅₀ value was analyzed using PerkinElmer's WorkOut 2.5 program.
The affinity of humanized antibodies for mouse Ang2 (mAng2) was analyzed by ELISA. Specifically, mAng2 was diluted in 30 μl of a coating buffer (0.1 M sodium carbonate buffer) at 20 ng per well in a half 96-well plate (Corning 3690) and incubated overnight at 4° C. After washing with TBS-T solution for 3 times, the well plate was blocked with 3% skim milk at room temperature for 1 hr and then washed again. 2C8H11 and 4B9H11 were serially diluted from […] to 300 ng/ml. After loading 30 μl of the diluted ant-Ang2 antibodies into wells, the well plate was incubated at room temperature for 2 hrs. […] After developing for 5 min, the plate was treated with 1N sulfuric acid to stop the reaction, and absorbance was measured at 450 nm. Based on the measured OD value, the EC₅₀ value was analyzed using PerkinElmer's WorkOut 2.5 program.

[2] = target: T2, Human Angiopoietin-2 full-length (hAng2); experiment: BLI (Octet), antibody fixed on AR2G sensor, hAng2 3.125-50 nM in solution, 1:1 global fit
Method: The affinity of humanized anti-Ang2 antibody against hAng2 was measured using Octet system (ForteBio). Specifically, buffer and samples were measured in total 200 μl/well using Black 96-well plates (96 well F-type black plates, Greiner). […] After the hydration, humanized anti-Ang2 antibody was diluted in 10 mM sodium acetate, pH 6.0 buffer at a concentration of 10 μg/ml, fixed on AR2G biosensor, and blocked with 1M ethanolamine. The recombinant hAng2 was diluted to 50, 25, 12.5, 6.25, 3.125, and 0 nM with 1× kinetic buffer, and subjected to association for 300 sec and dissociation for 900 sec.
The affinities of humanized 2C8 antibodies to hAng2 were in Table 15.

Binder | EC50 [1] [µg/mL] | Kd [2] [nM] | koff [2] [s⁻¹] | kon [2] [M⁻¹ s⁻¹]
B1 | 97 | 0.212 | 1.4e-05 | 66000
B2 | 105 | 0.0171 | 1.58e-06 | 92900
